According to article PMC3217464 (Molecular cell, 2009):

The binders below were run against Flag-tagged full length MED1 (UniProt Q15648 1-1581) (assay: immobilized-template protein recruitment assay).
Sequence of Flag-tagged full length MED1 (Q15648 whole entry): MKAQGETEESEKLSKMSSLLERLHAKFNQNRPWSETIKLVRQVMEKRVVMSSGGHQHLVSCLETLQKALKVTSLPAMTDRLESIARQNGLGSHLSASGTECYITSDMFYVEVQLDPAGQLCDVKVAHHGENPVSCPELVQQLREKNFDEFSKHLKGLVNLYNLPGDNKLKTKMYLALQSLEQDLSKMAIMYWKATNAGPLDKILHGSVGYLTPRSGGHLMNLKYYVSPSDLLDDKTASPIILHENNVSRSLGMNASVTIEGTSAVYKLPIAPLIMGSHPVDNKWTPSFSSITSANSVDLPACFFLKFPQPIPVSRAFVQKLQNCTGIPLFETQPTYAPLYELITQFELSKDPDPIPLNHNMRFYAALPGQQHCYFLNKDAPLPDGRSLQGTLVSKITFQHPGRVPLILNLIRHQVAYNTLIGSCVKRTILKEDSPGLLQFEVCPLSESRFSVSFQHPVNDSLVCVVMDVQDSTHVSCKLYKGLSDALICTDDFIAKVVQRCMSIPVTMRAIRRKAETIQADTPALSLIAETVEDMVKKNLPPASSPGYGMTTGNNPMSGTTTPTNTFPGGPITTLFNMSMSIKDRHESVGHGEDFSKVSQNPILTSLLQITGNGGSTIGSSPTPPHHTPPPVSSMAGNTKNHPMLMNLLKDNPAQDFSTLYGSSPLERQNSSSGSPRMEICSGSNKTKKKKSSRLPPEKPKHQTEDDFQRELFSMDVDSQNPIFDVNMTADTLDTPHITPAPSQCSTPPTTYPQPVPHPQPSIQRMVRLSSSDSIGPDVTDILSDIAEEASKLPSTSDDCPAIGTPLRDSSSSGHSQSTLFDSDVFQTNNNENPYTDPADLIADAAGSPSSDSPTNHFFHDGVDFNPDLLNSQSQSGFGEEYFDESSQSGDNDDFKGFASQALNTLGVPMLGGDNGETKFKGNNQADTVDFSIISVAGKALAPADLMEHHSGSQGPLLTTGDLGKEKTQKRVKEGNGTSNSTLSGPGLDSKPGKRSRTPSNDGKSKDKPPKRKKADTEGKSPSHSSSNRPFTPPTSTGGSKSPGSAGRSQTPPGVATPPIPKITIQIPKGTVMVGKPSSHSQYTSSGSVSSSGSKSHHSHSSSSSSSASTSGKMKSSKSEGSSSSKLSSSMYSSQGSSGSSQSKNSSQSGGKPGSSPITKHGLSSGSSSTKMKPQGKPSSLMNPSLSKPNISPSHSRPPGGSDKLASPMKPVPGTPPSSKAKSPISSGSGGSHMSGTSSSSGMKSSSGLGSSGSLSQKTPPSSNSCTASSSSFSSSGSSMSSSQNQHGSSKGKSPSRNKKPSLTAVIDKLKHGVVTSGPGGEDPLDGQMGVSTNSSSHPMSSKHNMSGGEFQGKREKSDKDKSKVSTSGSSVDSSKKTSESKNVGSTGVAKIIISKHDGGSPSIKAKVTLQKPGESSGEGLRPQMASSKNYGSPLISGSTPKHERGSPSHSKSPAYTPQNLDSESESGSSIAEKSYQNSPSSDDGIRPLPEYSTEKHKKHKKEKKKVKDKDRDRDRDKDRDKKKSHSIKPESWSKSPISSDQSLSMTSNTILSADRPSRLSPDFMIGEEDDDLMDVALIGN

binding result	Binder
binds	His-tagged PGC-1α (334–797) (domain or fragment, UniProt O70343 334-797, looked up) ECSGTQGSHSTKKGPEQSELYAQLSKSSGLSRGHEERKTKRPSLRLFGDHDYCQSLNSKTDILINISQELQDSRQLDFKDASCDWQGHICSSTDSGQCYLRETLEASKQVSPCSTRKQLQDQEIRAELNKHFGHPCQAVFDDKSDKTSELRDGDFSNEQFSKLPVFINSGLAMDGLFDDSEDESDKLSYPWDGTQPYSLFDVSPSCSSFNSPCRDSVSPPKSLFSQRPQRMRSRSRSFSRHRSCSRSPYSRSRSRSPGSRSSSRSCYYYESSHYRHRTHRNSPLYVRSRSRSPYSRRPRYDSYEAYEHERLKRDEYRKEHEKRESERAKQRERQKQKAIEERRVIYVGKIRPDTTRTELRDRFEVFGEIEECTVNLRDDGDSYGFITYRYTCDAFAALENGYTLRRSNETDFELYFCGRKQFFKSNYADLDTNSDDFDPASTKSKYDSLDFDSLLKEAQRSLRR
binds	His-tagged PGC-1α (501–797) (domain or fragment, UniProt O70343 501-797, looked up) NSGLAMDGLFDDSEDESDKLSYPWDGTQPYSLFDVSPSCSSFNSPCRDSVSPPKSLFSQRPQRMRSRSRSFSRHRSCSRSPYSRSRSRSPGSRSSSRSCYYYESSHYRHRTHRNSPLYVRSRSRSPYSRRPRYDSYEAYEHERLKRDEYRKEHEKRESERAKQRERQKQKAIEERRVIYVGKIRPDTTRTELRDRFEVFGEIEECTVNLRDDGDSYGFITYRYTCDAFAALENGYTLRRSNETDFELYFCGRKQFFKSNYADLDTNSDDFDPASTKSKYDSLDFDSLLKEAQRSLRR
binds	His-tagged full length PGC-1α (natural protein, UniProt O70343 1-797, looked up) MAWDMCSQDSVWSDIECAALVGEDQPLCPDLPELDLSELDVNDLDTDSFLGGLKWCSDQSEIISNQYNNEPANIFEKIDEENEANLLAVLTETLDSLPVDEDGLPSFDALTDGAVTTDNEASPSSMPDGTPPPQEAEEPSLLKKLLLAPANTQLSYNECSGLSTQNHAANHTHRIRTNPAIVKTENSWSNKAKSICQQQKPQRRPCSELLKYLTTNDDPPHTKPTENRNSSRDKCASKKKSHTQPQSQHAQAKPTTLSLPLTPESPNDPKGSPFENKTIERTLSVELSGTAGLTPPTTPPHKANQDNPFKASPKLKPSCKTVVPPPTKRARYSECSGTQGSHSTKKGPEQSELYAQLSKSSGLSRGHEERKTKRPSLRLFGDHDYCQSLNSKTDILINISQELQDSRQLDFKDASCDWQGHICSSTDSGQCYLRETLEASKQVSPCSTRKQLQDQEIRAELNKHFGHPCQAVFDDKSDKTSELRDGDFSNEQFSKLPVFINSGLAMDGLFDDSEDESDKLSYPWDGTQPYSLFDVSPSCSSFNSPCRDSVSPPKSLFSQRPQRMRSRSRSFSRHRSCSRSPYSRSRSRSPGSRSSSRSCYYYESSHYRHRTHRNSPLYVRSRSRSPYSRRPRYDSYEAYEHERLKRDEYRKEHEKRESERAKQRERQKQKAIEERRVIYVGKIRPDTTRTELRDRFEVFGEIEECTVNLRDDGDSYGFITYRYTCDAFAALENGYTLRRSNETDFELYFCGRKQFFKSNYADLDTNSDDFDPASTKSKYDSLDFDSLLKEAQRSLRR
